What all share (assay): cell_activity
The test system of data set [1] is Sleeping Beauty transposase SB11 (synthetic (reconstructed fish Tc1-like)?). To be noted: colony formation in PEGE cells.
Data set [2] concerns rtTR-KRAB2S-M2 (Escherichia coli / Homo sapiens fusion?). To be noted: tet-off version, shCFTR1 expression with vs without doxycycline in pig fibroblasts.
Data set [3] concerns tTR-KRAB (Escherichia coli / Homo sapiens fusion?). To be noted: tet-on version, shCFTR1 expression with vs without doxycycline in pig fibroblasts.
Another data set relates to Tol2 transposase. Particulars: colony formation in PEGE cells.
In data set [4] the test system is Passport (PP, PPTN) transposase PTs1. Particulars: colony formation in PEGE cells.
The test system of another data set is piggyBac transposase. Particulars: colony formation in PEGE cells; TTAA target.

Drawing on patent US8309791, this text covers activity (fold over no transposase) and activity for five substances.

Substance “SB transposon inverted terminal repeats (pT2-FloxP-PTK, pKT2P-PTK)” had an activity (fold over no transposase) in data set [1] of 13.5. As for tet operator (TRE), the activity in data set [2] was found to be 67 fold change; in data set [3] it was 64 fold change. The substance “mini Tol2 transposon inverted repeats (pGTol2P-PTK)” had an activity (fold over no transposase) in the data set on Tol2 transposase of 21. In turn, “PP transposon inverted repeats (pPTnP-PTK)” gave an activity (fold over no transposase) in data set [4] of 5.

As for piggyBac LTR1/LTR2 (pPBTP-PTK), the activity (fold over no transposase) with piggyBac transposase worked out at 28.
